Biological target: T1, GFP-B-MYB (human, UniProt P10244 1-700)
T1 construct: B-MYB, human, full length, fused to eGFP; The truncated derivatives were cloned in peGFP-C1, 2 or 3, which would put GFP at the N-terminus; also called GFP/B-MYB fusion protein; peGFP-B-MYB; source: HEK293T, stably expressing (lentiviral) or transfected, in lysate
T1 sequence (looked up): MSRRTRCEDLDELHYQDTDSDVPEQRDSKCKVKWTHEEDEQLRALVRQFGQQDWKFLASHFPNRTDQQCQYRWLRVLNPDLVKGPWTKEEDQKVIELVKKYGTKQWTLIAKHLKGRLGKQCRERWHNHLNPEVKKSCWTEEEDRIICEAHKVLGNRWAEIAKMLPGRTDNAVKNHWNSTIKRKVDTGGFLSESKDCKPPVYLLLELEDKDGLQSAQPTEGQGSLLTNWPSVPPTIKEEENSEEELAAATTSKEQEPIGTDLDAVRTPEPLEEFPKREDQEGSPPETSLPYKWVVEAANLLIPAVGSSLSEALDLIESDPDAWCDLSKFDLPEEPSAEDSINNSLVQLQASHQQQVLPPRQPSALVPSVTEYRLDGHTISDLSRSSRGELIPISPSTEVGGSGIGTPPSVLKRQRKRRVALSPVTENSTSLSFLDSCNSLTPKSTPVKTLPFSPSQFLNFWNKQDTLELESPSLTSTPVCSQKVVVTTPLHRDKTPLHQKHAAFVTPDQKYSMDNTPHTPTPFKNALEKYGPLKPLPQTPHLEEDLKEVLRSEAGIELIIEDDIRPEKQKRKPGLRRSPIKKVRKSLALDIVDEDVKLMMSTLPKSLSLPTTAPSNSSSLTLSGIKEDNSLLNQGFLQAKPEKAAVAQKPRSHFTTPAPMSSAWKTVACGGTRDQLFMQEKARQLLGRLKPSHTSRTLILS
Assay: co-IP; GFP-trap beads, 3 h at 4 °C, extracts of HEK293T cells in ELB buffer (50 mM Tris/HCl pH 7.5, 120 mM NaCl, 0.2% NP-40) expressing the GFP fusion bait; Western blot of bound proteins; in Fig. 3 cells pre-incubated with 10 μM BrdU and irradiated or not with UV-C
Details: partners not purified

B1: zinc finger MYM-type protein 4 (ZMYM4), endogenous (natural protein, human (endogenous in HEK293T), UniProt Q5VZL5 1-1548, looked up)
chain: MAEREVESGPRKRFEQKSGAVFDEIVENCGGIMDTEMSEDIDHNLTPTLDSMSYGMPNQTGSENSLLDEDDYFLNSGDLAGIPVVGSDNEDEQDFSSKDNLVSSIHTDDSLEVERRVTQHESDNENEIQIQNKLKKDFPKQFDQVSVFKSIRKDFSLVRENSKETFSGKEKNRDLTYEREKRLDKPHKDLDSRLKSSFFDKAANQVEETLHTHLPQTPETNFRDSSYPFANKESIGSELGNSFASNIRIKEEPLDDEYDKAMAPQQGLLDKIKDEPDNAQEYSHGQQQKTQEGELKISAVFSVSGSPLAPQLTTGFQPSLASSGMNKMLPSVPATAVRVSCSGCKKILQKGQTAYQRKGSTQLFCSTLCLTGYTVPPARPPPPLTKKTCSSCSKDILNPKDVISAQFENTTTSKDFCSQSCLSTYELKKKPIVTINTNSISTKCSMCQKNAVIRHEVNYQNVVHKLCSDACFSKFRSANNLTMNCCENCGGYCYSGSGQCHMLQIEGQSKKFCSSSCITAYKQKSAKITPCALCKSLRSSAEMIENTNSLGKTELFCSVNCLSAYRVKMVTSAGVQVQCNSCKTSAIPQYHLAMSDGSIRNFCSYSCVVAFQNLFNKPTGMNSSVVPLSQGQVIVSIPTGSTVSAGGGSTSAVSPTSISSSAAAGLQRLAAQSQHVGFARSVVKLKCQHCNRLFATKPELLDYKGKMFQFCGKNCSDEYKKINNVMAMCEYCKIEKIVKETVRFSGADKSFCSEGCKLLYKHDLAKRWGNHCKMCSYCLQTSPKLVQNNLGGKVEEFCCEECMSKYTVLFYQMAKCDACKRQGKLSESLKWRGEMKHFCNLLCILMFCNQQSVCDPPSQNNAANISMVQAASAGPPSLRKDSTPVIANVVSLASAPAAQPTVNSNSVLQGAVPTVTAKIIGDASTQTDALKLPPSQPPRLLKNKALLCKPITQTKATSCKPHTQNKECQTEDTPSQPQIIVVPVPVPVFVPIPLHLYTQYAPVPFGIPVPMPVPMLIPSSMDSEDKVTESIEDIKEKLPTHPFEADLLEMAEMIAEDEEKKTLSQGESQTSEHELFLDTKIFEKDQGSTYSGDLESEAVSTPHSWEEELNHYALKSNAVQEADSELKQFSKGETEQDLEADFPSDSFDPLNKGQGIQARSRTRRRHRDGFPQPRRRGRKKSIVAVEPRSLIQGAFQGCSVSGMTLKYMYGVNAWKNWVQWKNAKEEQGDLKCGGVEQASSSPRSDPLGSTQDHALSQESSEPGCRVRSIKLKEDILSCTFAELSLGLCQFIQEVRRPNGEKYDPDSILYLCLGIQQYLFENGRIDNIFTEPYSRFMIELTKLLKIWEPTILPNGYMFSRIEEEHLWECKQLGAYSPIVLLNTLLFFNTKYFQLKNVTEHLKLSFAHVMRRTRTLKYSTKMTYLRFFPPLQKQESEPDKLTVGKRKRNEDDEVPVGVEMAENTDNPLRCPVRLYEFYLSKCSESVKQRNDVFYLQPERSCVPNSPMWYSTFPIDPGTLDTMLTRILMVREVHEELAKAKSEDSDVELSD
notes: ZMYM4 (zinc finger MYM-type protein 4), endogenous in HEK293T cells; In extracts made without NEM the protein is de-SUMOylated; also called endogenous ZMYM4; source: endogenous, HEK293T lysate
- fold increase of binding after UV irradiation (against non-irradiated cells, densitometry): 4.1 fold

From paper PMC7242444, “Characterization of the zinc finger proteins ZMYM2 and ZMYM4 as novel B-MYB binding proteins” (Scientific Reports, 2020)
